Data from the RNAGym collection of RNA variant scans (doi:10.1073/pnas.2313332121).
This sample holds only a part of the variants without activity.

B1: TPR 5TU (parent)
chain: GGAUCUUCUCGAUCUAACAAAAAAGACAAAUCUGCCACAAAGCUUGAGAGCAUCUUCGGAUGCAGAGGCGGCAGCCUUCGGUGGCGCGAUAGCGCCAACGUUCUCAACUAUGACACGCAAAACGCGUGCUCCGUUGAAUGGAGUUUAUCAUG

Variants of: B1
Assay: polymerase ribozyme fitness, log enrichment relative to wild type (log ratio); higher = more active; in vitro selection for triplet polymerase activity
How it was run: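 Both subunits of a heterodimeric triplet polymerase ribozyme were given their own mutant library, built by PCR and transcribed. Each library was annealed with a biotinylated primer, the partner subunit and triplets, incubated frozen at −7 °C, and its extended constructs gel-excised, captured on streptavidin beads and amplified by RT-PCR, all in one round done in triplicate. Fitness is the logarithm of genotype enrichment relative to wild-type enrichment, with replicates averaged by inverse-variance weighting. That logarithm is base 2, and Illumina-sequenced genotypes needed ≥10 input reads and ≥1 read per output.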

| Variant | polymerase ribozyme fitness (log ratio) |
| --- | --- |
| GGAUCUUCUCGAGCUAACAAAGAUGACGAAUCUGCCACAAAGCUUGAGAGCAUCUUCGGAUGCAGAGGCGGCAGCUUAGGAUGGCGCGAUAGCGCCAACGUGCUCAACUAUGAAACGCAAAACGCGUGCUCCGUUGAAUGGAGUUUAUCAUG [U13G A22G A24U A28G C76U U78A C79G G81A U102G C114A] | ≤ -4.2 |
| GGAUCUUCUCGAGCUAACAAAAAAGACAAAUCUGCUACAAAGCUUGAGAGCGUCGUCGGAUGCAGAGGUGGCAGCGUUCGGUCGCGCGAUAGCGCCAACGUUCUCAACUAUGAUACGCAAAACGCGUGCUCCGUUGAAUGGAGUUUAUAAUG [U13G C36U A52G U55G C69U C76G G83C C114U C149A] | ≤ -4.2 |
| GGAUCUUCUCGAGCUAACAAAAAUGACAAAUCUGCCGCAAAGCUUGAGAGCAUCUUCGGAUGCAGAGGCGGCAGCCUUCGGUGGCGCGAUAGCGCCAACGUUCUCAACUAUGACACGCAAAACGCGUGCUCCGCUGAAUGGAGUUUAUCAUG [U13G A24U A37G U134C] | -4.14 |
| GGAUCUUCUCGAGCUAACAAAAAAGACAAAUCUGCCACAAAGCUUGAGAGCAUCUUCGGAUGCAGAGGAGGCAGCCUUCGGUGGCGCGAUAGCGCCAACGUUCUCAACUAUGACACGCAAAACGCGUGCUCCGUUGAAUGGAGUUUAUCAUG [U13G C69A] | ≤ -4.2 |
| GGAUCUUCUCGACCUAACAAAAAAGACAAAUCUGCCACAAAGCUUGAGAGCAUCUUCGGAUGCAGAGGCGGCAGCCUUCGGUGGCGCGAUAGCGCCAACGUUCUCAACUAUGACACGCAAAACGCGUGCUCCGUUGAAUGGAGUUUACCAUG [U13C U148C] | -2.48 |
| GGAUCUUCUCGAGCUAACAAUCAAGACAAAUCUGCCACAAAGCUUGAGAGCAUCUUCGGAUGCAGAGGCGGCAGCCUUCGGGGGCGCGAUAUCGCCACCGUUCUCAACUAUGACAUGCAAAACGCGUGCUCCGUUAAAUGGAGUUUAUCAUG [U13G A21U A22C U82G G92U A98C C116U G136A] | -4.02 |
| GGAUCUUCUCGAGCUAACAACAAAGAAAAAUCUGCCACAAAGCUUGAGAGCAUCAUCGGAUGCAGAGGCGGCAGCCUUCGGUGGCGCGAUAGCGCCAAAGUUGUCAACUAUGACACGCAAAACGCGUGCUCCGUUGAAUGGAGUUUAUCAUG [U13G A21C C27A U55A C99A C103G] | ≤ -4.2 |
| GGAUCUUCUCGAGCUAACAAUAAAGACAAAUCUGCCACAAAGCUUGAGAGCAUCUUUGGAUGCAGAGACGGCUGCCUUCGGUGGCGCGAUACCGCCAACGUUAUCAACUAUGACACGCAAAACGCGUGCUCCGUUGAAUGGAGUUUAUCAUG [U13G A21U C57U G68A A73U G92C C103A] | ≤ -4.2 |
| GGAUCUUCUCGACCUAACAAAAAAGACAAAUCUGCCACAAAGCUUGAGAGCAUCUUCGGACGCAGAGGCGGCAGCCUUCGGUGGUGCGCUAGCGCCAACGUUCUCAACUAUGACACGCAAAACGCGUGCUCCGUUGAAUGGAGAUUAUCAUG [U13C U61C C85U A89C U144A] | ≤ -4.2 |
| GGAUCUUCUCGAGCUAACAAAAAAGACAUAUCUGCCAGAAAGCUUGAGAGCAUCUUCGGAUGCAGAGGCUGCAGCCUUCGGUGGCGCGAUAGCGCCAACGUUCUCAACUAUGACACUCAUAACGCGUGCUCCGUUGAAUGGAGUUUAUUAUG [U13G A29U C38G G70U G117U A120U C149U] | ≤ -4.2 |
| GGAUCUUCUCGAGCUAACAAAAAAGACUAAUCUGCCACAAAGCUUGAGAGCAUCUUCGGAUGCAGAGGCGACAGCCUUCGGUGGCGCCAUAGCGCCAACGUUCUCAACUAUGACACGCAAAACGCGUGCUCCGUUGAAUGGAGUUUAUCAUG [U13G A28U G71A G88C] | ≤ -4.2 |
| GGAUCUUCUCGAGCUAACAAAAAAGACAAAUCUGCCACAAAGCUUGAGAGCAUCUUCGGAUGCAGAGGCGGCAGCCUUCGGUGGCGCGAUAGCGCCAACGUUCUCAACUAUGACACGCAAAACGCGUGCUCCGUUGAAUGGAGUUUAUCAUG [U13G] | -0.261 |
| GGAUCUUCUCGAGCUAACAAAAAAGACAAAUAUGCCACAAAGCUUGAGAGCAUCUUCGGAUGCAGAGGCGGCAGCCUUCGGUGGCCCGAUAGCGCCAACGUUCUCAGCUAUGACACGCAAAACGGGUGCUCCGUAGAAUGGAGUUUAUCAUG [U13G C32A G86C A107G C125G U135A] | ≤ -4.2 |
| GGAUCUUCUCGAGUUGACAAAAAAGACAAAUCUGCCACAAAGCUUGAGAGCAUCUUCGAAUGCAGAGGCGGCAGCCUUCGGUGGCGCGAGAGCGCCAACGUUCUCAACUAUGACACGCAAAACGCGUGCUCCGUUGAAUGGAGUUUAUCAUG [U13G C14U A16G G59A U90G] | -4.01 |
| GGAUCUUCUCGAGCUAACAAAAAAGAAAAAUCUGCUACACAGCUUGAGAGCAUCUUCGGGUGCAGAGGCGGCAGCCUUCGGUGGCGCGAUAGCGCCAACGUUCUCAACUAUGACACGCAAAACGCGUGCUCCGUUGAGUGGAGUUUAUCAUG [U13G C27A C36U A40C A60G A138G] | ≤ -4.2 |
| GGAUCUUCUCGACCUAACAAAAAAGACAAAGGUGCCACAAAGCUUGAGAGCAUCUUCGGAUGCAGAGGCGGCAGCUUUCGGUGGCGCGAUAGCGCCAACGUUCUCAACUAUGACACGCAAAACGCGUGCUGCGUUGAAUGGAGUUUAUCAUG [U13C U31G C32G C76U C131G] | ≤ -4.2 |
| GGAUCUUCUCGAGCUAACAAAAAAGACAAAUCUGCCACAAAGCUUGAGAGCAUCUUUGGAUGCAGAGGCGGCAGCCUUCGGUGGCGCGAUAGCGCGAACGUUCUCAACUAUGACACGCAAAACGCGUGCUCCGUUGAAUGGAGUUUAUCAUG [U13G C57U C96G] | -1.66 |
| GGAUCUUCUCGAGCUAACAAAAAAGACAAAUCUGCCACAAAGCUUGAGAGCAUCUUCGGAUGCAGAGGCGGCAGCCUUAGGUGGCGCGAUAGCGCCAACGUUUUCAACUAUGACACGCAAAACGCGUGCUCCGUUGAAUGGAGUUUAUCAUG [U13G C79A C103U] | ≤ -4.2 |
| GGAUCUUCUCGAGCUAACAAAAAUGACUUAUCUGCCACAAAGCUUGAGAGCAUUUUCGGAUGCAGAGGAGGCAGCGUUCGGUGGCGCGAUAGCUCCCACGUUCUCAACUAUGACACGCAAAACGCGUGCUCCGUCGAAUGGAGUUUAUCAUG [U13G A24U A28U A29U C54U C69A C76G G94U A97C U135C] | ≤ -4.2 |
